Laboratory results: patent publication US20240376170A1 (BRIGHT PEAK THERAPEUTICS, published 2024)
Bridges are numbered along the chain shown (N, C = ends). Primed or numbered codes have the meaning given here. [ ]: non-standard residue; d: D form. Ygp = O-(8x polyethylene glycol-amino)-tyrosine (Tyr, amino-capped PEG8); Yn3 = O-(9x polyethylene glycol-azido)-tyrosine (Tyr, azide-capped PEG9); Ygp″ = O-(8x polyethylene glycol-amino)-tyrosine; Yn3″ = O-(9x polyethylene glycol-azido)-tyrosine; hSer = N[C@@H](CCO)C(=O)O; Nle = CCCC[C@H](N)C(=O)O

T1: recombinant human IL-2 receptor beta containing a His-tag and Avi-tag (human, UniProt P14784 27-239)
T1 construct: Bought; attached to the SAX2 biosensor; also called CD122; IL-2R β; not shown: His-tag and Avi-tag
T1 sequence (looked up): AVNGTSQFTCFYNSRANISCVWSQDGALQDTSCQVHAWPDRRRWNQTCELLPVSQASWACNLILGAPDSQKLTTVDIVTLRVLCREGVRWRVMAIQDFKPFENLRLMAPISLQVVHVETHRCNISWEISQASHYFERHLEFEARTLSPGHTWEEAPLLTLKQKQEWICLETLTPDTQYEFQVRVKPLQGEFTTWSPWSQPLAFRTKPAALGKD

T2: Avi-tag Fc with human IL-2R beta and IL-2R gamma attached (Acrobiosystems ACRB-ILG-H82F3-25UG) (human, UniProt P14784 27-239; P31785 23-262)
T2 construct: Bought; attached to the SAX2 biosensor; also called CD122 CD132; IL-2R βγ; not shown: Fc and Avi-tag
T2 sequence (looked up) 1: T1 sequence (looked up)
T2 sequence (looked up) 2: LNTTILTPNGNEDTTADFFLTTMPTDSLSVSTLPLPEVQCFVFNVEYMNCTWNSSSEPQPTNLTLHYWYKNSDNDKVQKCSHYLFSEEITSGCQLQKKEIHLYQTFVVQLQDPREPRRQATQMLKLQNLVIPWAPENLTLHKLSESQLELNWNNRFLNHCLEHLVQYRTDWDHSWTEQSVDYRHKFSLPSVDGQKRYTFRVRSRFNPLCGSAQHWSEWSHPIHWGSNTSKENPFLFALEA

B1: CMP-166 (ligand)
chain: APTSSSTKKTQLQLEHLLLDLQKILNGINNYKNPKLTR[Nle]L[hSer][Yn3]KF[Ygp][Nle]PKKATELKHLQCLEEELKPLEEVL[hSer]LAQSKNFHLRPRDLISNINVIVLELKGSETTF[hSer]CEYADETATIVEFLNRWITFSQSIISTLT
modifications: bridge N-23; not fully specified (bridges); ends not checked; also: sequence of the cleavable peptide in the bridge not given here
B2: CMP-167, MMP2 cleaved (ligand)
chain: APTSSSTKKTQLQLEHLLLDLQKILNGINNYKNPKLTR[Nle]L[hSer][Yn3″]KF[Ygp″][Nle]PKKATELKHLQCLEEELKPLEEVL[hSer]LAQSKNFHLRPRDLISNINVIVLELKGSETTF[hSer]CEYADETATIVEFLNRWITFSQSIISTLT
modifications: ends and bridges not checked; also: MMP2 cleaved, ring opened, cut site and remnants not given here
notes: Tested after MMP2 treatment
B3: CMP-165, MMP2 cleaved (ligand)
chain: APTSSSTKKTQLQLEHLLLDLQKILNGINNYKNPKLTR[Nle]L[hSer][Yn3]KF[Ygp][Nle]PKKATELKHLQCLEEELKPLEEVL[hSer]LAQSKNFHLRPRDLISNINVIVLELKGSETTF[hSer]CEYADETATIVEFLNRWITFSQSIISTLT
modifications: also: glutaryl-peptide bridge Ala1 to Lys23 cut by MMP2, site not given here, ring opened
notes: Tested after MMP2 treatment
B4: CMP-165 (ligand)
chain: APTSSSTKKTQLQLEHLLLDLQKILNGINNYKNPKLTR[Nle]L[hSer][Yn3]KF[Ygp][Nle]PKKATELKHLQCLEEELKPLEEVL[hSer]LAQSKNFHLRPRDLISNINVIVLELKGSETTF[hSer]CEYADETATIVEFLNRWITFSQSIISTLT
modifications: bridge N-23; not fully specified (bridges); ends not checked; also: sequence of the cleavable peptide in the bridge not given here
B5: CMP-166, MMP2 cleaved (ligand)
chain: APTSSSTKKTQLQLEHLLLDLQKILNGINNYKNPKLTR[Nle]L[hSer][Yn3]KF[Ygp][Nle]PKKATELKHLQCLEEELKPLEEVL[hSer]LAQSKNFHLRPRDLISNINVIVLELKGSETTF[hSer]CEYADETATIVEFLNRWITFSQSIISTLT
modifications: also: glutaryl-PEG4-peptide bridge Ala1 to Lys23 cut by MMP2, site not given here, ring opened
notes: Tested after MMP2 treatment
B6: CMP-167 (ligand)
chain: APTSSSTKKTQLQLEHLLLDLQKILNGINNYKNPKLTR[Nle]L[hSer][Yn3]KF[Ygp][Nle]PKKATELKHLQCLEEELKPLEEVL[hSer]LAQSKNFHLRPRDLISNINVIVLELKGSETTF[hSer]CEYADETATIVEFLNRWITFSQSIISTLT
modifications: bridge N-23; not fully specified (bridges); ends not checked
B7: CMP-168 (ligand)
chain: APTSSSTKKTQLQLEHLLLDLQEILNGINNYKNPKLTR[Nle]L[hSer][Yn3″]KF[Ygp″][Nle]PKKATELKHLQCLEEELKPLEEVL[hSer]LAQSKNFHLRPRDLISNINVIVLELKGSETTF[hSer]CEYADETATIVEFLNRWITFSQSIISTLT
modifications: bridge 9-23; not fully specified (bridges); ends not checked
B8: CMP-168, MMP2 cleaved (ligand)
chain: APTSSSTKKTQLQLEHLLLDLQEILNGINNYKNPKLTR[Nle]L[hSer][Yn3″]KF[Ygp″][Nle]PKKATELKHLQCLEEELKPLEEVL[hSer]LAQSKNFHLRPRDLISNINVIVLELKGSETTF[hSer]CEYADETATIVEFLNRWITFSQSIISTLT
modifications: ends and bridges not checked; also: MMP2 cleaved, ring opened, cut site and remnants not given here
notes: Tested after MMP2 treatment

Legend:
[1] = biological target: T1, recombinant human IL-2 receptor beta …; assay: BLI (Octet R8), receptor on SAX2 sensor; construct CMP-166, intact (no MMP2)
Method: (§1) Bilayer interferometry (BLI) assays were used to measure the binding constants between activatable IL-2 polypeptides (and activated versions thereof) to IL-2 receptor subunits or receptor complexes. BLI assays were conducted on an Octet® R8 instrument. Assay plates were 96 well, polypropylene, F-bottom (chimney well), black microplates (Greiner Bio-one, Cat. No: 655209). The biosensors were Octet® SAX2 (Sartorius, Cat. No: 18-5136). The assay buffer was 1X Kinetic Buffer (Sartorius, Cat. no: 18-5136) or Phosphate Buffered Saline (PBS) that contained 0.02% (v: v) Tween 20 (Polysorbate 20) and 0.1% (w/v) bovine serum albumin (BSA). The sensor was regenerated between measurements in 10 mM glycine pH 2.7 buffer.
(§2) Sensor attached receptors were either recombinant human IL-2 receptor beta containing a His-tag and Avi-tag™ (R&D Systems™) or an Avi-tag™ Fc with human IL-2R beta and IL-2R gamma attached (Acrobiosystems Cat. no: ACRB-ILG-H₈₂F3-25UG). Receptors were reconstituted from lyophilized powder to 500 μg/ml in PBS. Analytes were diluted in Kinetic buffer to 300 nM, then serially diluted to lower concentrations.

[2] = biological target: T2, Avi-tag Fc with human IL-2R beta and …; assay: as above
Method: as §1, §2

[3] = biological target: T1, recombinant human IL-2 receptor beta …; assay: BLI (Octet R8), receptor on SAX2 sensor
Method: as §1, §2

[4] = biological target: T1, recombinant human IL-2 receptor beta …; assay: BLI (Octet R8), receptor on SAX2 sensor; CMP-167 treated with MMP2 (cleaved)
Method: as §1, §2

[5] = biological target: T2, Avi-tag Fc with human IL-2R beta and …; assay: as above
Method: as §1, §2

[6] = biological target: T2, Avi-tag Fc with human IL-2R beta and …; assay: BLI (Octet R8), receptor on SAX2 sensor
Method: as §1, §2

[7] = biological target: T1, recombinant human IL-2 receptor beta …; assay: BLI (Octet R8), receptor on SAX2 sensor; CMP-165 treated with MMP2 (cleaved)
Method: as §1, §2

[8] = biological target: T2, Avi-tag Fc with human IL-2R beta and …; assay: as above
Method: as §1, §2

[9] = biological target: T1, recombinant human IL-2 receptor beta …; assay: BLI (Octet R8), receptor on SAX2 sensor; construct CMP-165, intact (no MMP2)
Method: as §1, §2

[10] = biological target: T2, Avi-tag Fc with human IL-2R beta and …; assay: as above
Method: as §1, §2

[11] = biological target: T1, recombinant human IL-2 receptor beta …; assay: BLI (Octet R8), receptor on SAX2 sensor; CMP-166 treated with MMP2 (cleaved)
Method: as §1, §2

[12] = biological target: T2, Avi-tag Fc with human IL-2R beta and …; assay: as above
Method: as §1, §2

[13] = biological target: T1, recombinant human IL-2 receptor beta …; assay: BLI (Octet R8), receptor on SAX2 sensor; construct CMP-167, intact (no MMP2)
Method: as §1, §2

[14] = biological target: T2, Avi-tag Fc with human IL-2R beta and …; assay: as above
Method: as §1, §2

[15] = biological target: T1, recombinant human IL-2 receptor beta …; assay: BLI (Octet R8), receptor on SAX2 sensor; construct CMP-168, intact (no MMP2)
Method: as §1, §2

[16] = biological target: T1, recombinant human IL-2 receptor beta …; assay: BLI (Octet R8), receptor on SAX2 sensor; CMP-168 treated with MMP2 (cleaved)
Method: as §1, §2

Binder | koff [3] | kon [3] | koff [6] | kon [6] | further results
B1 | 0.613 s⁻¹ | – | – | – | Kd [1]: 0.614 µM; Kd [2]: 0.0161 µM
B2 | 0.227 s⁻¹ | 345000 M⁻¹ s⁻¹ | 0.000923 s⁻¹ | 594000 M⁻¹ s⁻¹ | Kd [4]: 0.658 µM; Kd [5]: 0.00155 µM
B3 | 0.237 s⁻¹ | 213000 M⁻¹ s⁻¹ | 0.00114 s⁻¹ | 608000 M⁻¹ s⁻¹ | Kd [7]: 1.11 µM; Kd [8]: 0.00187 µM
B4 | 0.633 s⁻¹ | – | – | – | Kd [9]: 44.2 µM; Kd [10]: 0.0261 nM
B5 | 0.225 s⁻¹ | 283000 M⁻¹ s⁻¹ | 0.000684 s⁻¹ | 567000 M⁻¹ s⁻¹ | Kd [11]: 0.794 µM; Kd [12]: 0.00121 µM
B6 | 0.993 s⁻¹ | – | – | – | Kd [13]: 0.215 µM; Kd [14]: 0.0238 µM
B7 | – | – | 0.0022 s⁻¹ | – | Kd [15]: 25.1 µM
B8 | 1.08 s⁻¹ | 789 M⁻¹ s⁻¹ | 0.00164 s⁻¹ | 602000 M⁻¹ s⁻¹ | Kd [16]: 1370 µM; Kd [6]: 0.00227 µM
